Data on ten molecules can be found in patent US12037395 (IMMVIRA, dated 2024).

Sequences and labels used below:
B1: mouse anti-PD-1 monoclonal antibody C1C5 (antibody, mouse IgG1, kappa, V domains shown)
VH: QIQLVQSGPELKKPGETVKISCKASGYTFTNYGINWVKQAPGKGLKWMGWINTYSGEPTYSDDFKGRFAFSLETSASTAYLQINNLKNEDTSTYFCVRQGDFDYEDAMDYWGQGTSVTVSS
VL: DVLMTQSPLSLPVSLGDQASISCRSSQSIVHSNGHIYLEWYLQKPGQSPKLLIYKVSKRFSGVPDRFSGSGSGTDFTLKISRVEAEDLGVYYCFQGSHGTFGGGTKLEIKR
notes: Purified from hybridoma; Constant regions tied only generically to 'mouse antibodies'
B2: mouse anti-PD-1 monoclonal antibody C1F4 (antibody, mouse IgG1, kappa, V domains shown)
VH: QVQLQQSGAELVRPGVSVKISCKGSGYKFTDYAMHWVRQSHAKSLEWIGIISTYSGDVSFNQNFKGKATMTVDKSSSTAYMELARLTSEDSAIYYCSRLGITAGFAYWGQGTLVTVSA
VL: DIVMTQSQKFMSTSVGDRVTITCKASQNVRTAVAWYQQKPGQSPKALIYLASNRHTGVPDRFTGSGSGTDFTLTISNVQSKDLADYFCLQHWNYPYTFGGGTKLEIKR
notes: as for B1
B3: mouse anti-PD-1 monoclonal antibody C1E1 (antibody, mouse IgG1, kappa)
heavy: EVMLVESGGGLVKPGGSLKLSCAASGFTFSSYLMSWVRQTPEKRLEWVATISGGGGDTYFPDSVKGRFTISRDNVKNNLYLQMSSLRSEDTALYYCVRFGGAGYYWYFDVWGAGTTVTVSSAKTTPPSVYPLAPGSAAQTNSMVTLGCLVKGYFPEPVTVTWNSGSLSSGVHTFPAVLQSDLYTLSSSVTVPSSTWPSETVTCNVAHPASSTKVDKKIVPRDCGCKPCICTVPEVSSVFIFPPKPKDVLTITLTPKVTCVVVDISKDDPEVQFSWFVDDVEVHTAQTQPREEQFNSTFRSVSELPIMHQDWLNGKEFKCRVNSAAFPAPIEKTISKTKGRPKAPQVYTIPPPKEQMAKDKVSLTCMITDFFPEDITVEWQWNGQPAENYKNTQPIMDTDGSYFVYSKLNVQKSNWEAGNTFTCSVLHEGLHNHHTEKSLSHSPGK
light: not shown
notes: Purified from hybridoma; also called clone C1E1
B4: mouse anti-PD-1 monoclonal antibody D1F2 (antibody, mouse IgG1, kappa, V domains shown)
VH: EVMLVESGGGLVKPGGSLKLSCAASGFTFSSYTMSWVRQTPEKRLEWVATISGGGSNIYYPDSVEGRFTVSRDNARNTLYLHMSSLRSEDTALYYCVLNYAYAMDYWGQGTSVTVSS
VL: DIQMTQTTSSLSASLGDRVTISCRASQDISNFLNWYQQKPDGTVKLLIYYTSRLQSGVPSRFSGTGSGTDYSLTISNLEQEDLATYFCQQGSSLPWTFGGGTKLEIKR
notes: as for B1
B5: mouse anti-PD-1 monoclonal antibody D1A1 (antibody, mouse IgG1, kappa, V domains shown)
VH: EVMLVESGGGLVKPGGSLKLSCAASGFTFSNYAMSWVRQTPEKRLEWVATISGGGGNIYYPDSVKGRFTISRDNARNTLYLQMSSLRSEDTALYYCASPYANYVWYLDVWGAGTTVTVSS
VL: B4 VL with F32Y, Q55H, T65S, Y71F, Q80E, L83I, G91S, S92N, S93A
notes: as for B1
B6: mouse anti-PD-1 monoclonal antibody C1A1 (antibody, mouse IgG1, kappa, V domains shown)
VH: QVTLKESGPGILKPSQTLSLTCSFSGFSLSTSGMGVGWIRQPSGKGLEWLAHIWWDDDKFYNPSLKSQLTISKDTSRNQVFLKITSVDTADTATYYCARTGGFITTGYWYFDVWGAGTTVTVSS
VL: B4 VL with F32Y, N34I, P40T, V44L, Q55H, T65S, L83I, G91H, S92K, S93T
notes: as for B1
B7: mouse anti-PD-1 monoclonal antibody C1F5 (antibody, mouse IgG1, kappa, V domains shown)
VH: EVQLVESGGGLVKPGGSLKLSCAASGFAFSSYDMSWVRQTPEKRLEWVAYITGGGSSSFYPDTVKGRFTISRDNSKNTLYLQMTSLRSEDTAMYYCASPYLSYFDYWGQGTTLTVSS
VL: DIVLTQSPATLSVTPGDSVSLSCRASQSISNNLHWYQQKSHESPRLLIKYGSQSMSGIPSRFSGSGSGTDFTLVINSVETEDFGMYFCQQSNSWPLTFGAGTKLELKR
notes: as for B1
B8: mouse anti-PD-1 monoclonal antibody D1F1 (antibody, mouse IgG1, kappa, V domains shown)
VH: EVMLVESGGGLVKPGGSLKLSCAASGFTFSSNTMSWVRQTPEKRLEWVAAISGGGVNTYYPDSVKGRFTISRDNARNTLYLQMSSLRSEDTALYYCARHGNYNYYGMDYWGQGTSVTVSS
VL: not shown
notes: as for B1
B9: mouse anti-PD-1 monoclonal antibody D2C2 (antibody, mouse IgG1, kappa, V domains shown)
VH: B8 VH with N57D
VL: not shown
notes: as for B1
B10: mouse anti-PD-1 monoclonal antibody C1E2 (antibody, mouse IgG1, kappa, V domains shown)
VH: QVQLQQSGAELVRPGTSVKISCKASGYTFTNYWLGWVKQRPGHGLEWIGDIYPGGGYTNYNENFKGKATLTADTSSSTAYMQLSSLTSEDSAVFFCARGYGTNYWYFDVWGAGTTVTVSS
VL: SIVMTQTPKFLLVSAGDRVTITCKASQSVSNDVAWYQQKPGQSPKLLIYYAFHRYTGVPDRFTGSGYGTDFTFTISTVQAEDLAVYFCQQDYSSPYTFGGGTKLEIKR
notes: as for B1

Where a chain is given by its changes, count along the chain named.

One assay addresses human PD-1 on PD-1 Effector Cell Line (Genscript, GS-J2/PD-1) (human, UniProt Q15116 25-288). Description: cell-based or functional assay.
For the molecule B1, the “Reporter Activation (EC50, nM) human PD-1 cell (NFAT-luc)/human PD-L1 cell” value (“Reporter Activation” for short) was found to be 23.4 nM.
B2: the “Reporter Activation” value was 13.2 nM.
The same measure, in the same setting: in the case of B3 it was 9.11 nM; in that of B4, 7.35 nM.
Still for that read-out and setting: in the case of B5 it was 9.13 nM; in that of B6, 12.1 nM; in that of B7, 7.58 nM.
Take B8: the “Reporter Activation” value was 10.8 nM.
Regarding B9, the “Reporter Activation” value is 14.7 nM.
Consider B10, for which the “Reporter Activation” value was 11.1 nM.

The target in the next assay is T1, biotin-labeled human PD-1 Fc protein (human, biotin-labeled (sites not given)).
T1 construct: also called PD-1-Fc-biotin
Description: competition ELISA: blocks biotin PD-1-Fc binding to coated Nivolumab (competitor). The protocol: The next day, plates were washed with wash buffer, and blocked with 5% non-fatty milk in PBST for 2 hours at 37° C. […] Plates were finally washed using wash buffer. TMB was added and the reaction was stopped using 1M H_2SO_4, and the absorbance was read at 450 nm. Data were analyzed using Graphpad Prism software and $IC50$ values were reported.
Regarding B1, the IC50 was found to be 1.34 nM.
On the same count and under the same terms, in the case of B2 it was 2.26 nM; in that of B3, 1.1 nM.
In turn, B4 came in with an IC50 of 1.4 nM.
Same read-out and setting: in the case of B5 it was 1.28 nM; in that of B6, 1.4 nM.
In turn, B7 registered an IC50 of 0.87 nM.
The same measure, in the same setting: in the case of B8 it was 2.13 nM; in that of B9, 1.89 nM.
The molecule B10 gave an IC50 of 1.49 nM.

In the next assay the target is T1, biotin-labeled human PD-1 Fc protein. Description: competition ELISA: blocks biotin PD-1-Fc binding to coated PD-L1-Fc. On the procedure:
The next day, plates were washed with wash buffer (PBS+0.05% Tween-20, PBST), and blocked with 5% non-fatty milk in PBST for 2 hours at 37° C. Plates were then washed again using wash buffer.
After incubation at 37° C. for 40 minutes, plates were washed for 4 times using wash buffer. […] Plates were washed again using wash buffer. Finally, TMB was added and the reaction was stopped using 1M H_2SO_4, and the absorbance was read at 450 nm. Data were analyzed using Graphpad Prism software and $IC50$ values were reported.
The molecule B1 had an IC50 of 0.23 nM.
In turn, B2 came in with an IC50 of 0.43 nM.
The same measure, in the same setting: for B3 the value was 0.26 nM.
Same read-out and setting: in the case of B4 it was 0.21 nM; in that of B5, 0.22 nM.
Same read-out and setting: in the case of B6 it was 0.27 nM; in that of B7, 0.21 nM; in that of B8, 0.2 nM.
B9 showed an IC50 of 0.21 nM.
Same read-out and setting: in the case of B10 it was 0.25 nM.

Another assay shares this target. Description: capture ELISA: antibody captured by anti-IgG Fc, biotin PD-1-Fc 60 nM.
As for B1, a half-maximal response (EC50) required 0.16 nM.
The same measure, in the same setting: for B2 the value was 0.25 nM.
The same measure, in the same setting: for B3 the value was 0.16 nM; for B4, 0.19 nM.
Still for that read-out and setting: in the case of B5 it was 0.2 nM.
Molecule B6 yielded a half-maximal effective concentration (EC50) of 0.18 nM.
Turning to B7, the EC50 turned out to be 0.16 nM.
Same read-out and setting: for B8 the value was 0.24 nM; for B9, 0.2 nM.
Still for that read-out and setting: for B10 the value was 0.2 nM.

The target in the next assay is T2, cynomolgus monkey PD-1-his protein (Acro biosystems, #PD-1-C5223) (cynomolgus monkey, UniProt B0LAJ3 25-170).
T2 construct: Bought protein; also called Cynomolgus PD-1; Cynomolgus PD1
Description: SPR (Biacore T200), antibody captured, antigen flowed. From the text:
(§1) Briefly, goat […] (GE healthcare, Cat #BR100839, Human Antibody Capture Kit) was covalently linked to a CM5 chip (carboxy methyl dextran coated chip) via primary amines, using a standard amine coupling kit (GE healthcare, Pittsburgh, PA, USA) provided by Biacore. Unreacted moieties on the biosensor surface were blocked with ethanolamine. […] Then, recombinant human PD-1-his (Sino biological, #10377-H08H) or cynomolgus monkey PD-1-his protein (Acro biosystems, #PD-1-C5223) in HBS EP buffer (provided by Biacore) was flowed onto the chip at a flow rate of 30 μL/min. The antigen-antibody association kinetics was followed for 2 minutes and the dissociation kinetics was followed for 10 minutes. The association and dissociation curves were fit to a 1:1 *Langmuir* binding model using BIA evaluation software.
Regarding B1, binding was put at a Kd of 14.6 nM, the koff came out at 0.0047 s⁻¹ and the kon is 322000 M⁻¹ s⁻¹.
With B2, the affinity, expressed as Kd, was 17.3 nM; the koff was determined as 0.00521 s⁻¹; the kon worked out at 301000 M⁻¹ s⁻¹.
In turn, B3 yielded a Kd of 3.9 nM and a kon of 203000 M⁻¹ s⁻¹.
In turn, B4 yielded a Kd of 31.7 nM, a dissociation rate constant (koff) of 0.00632 s⁻¹ and a kon of 200000 M⁻¹ s⁻¹.
Take B5: the equilibrium dissociation constant (Kd) is 11.3 nM, the off-rate constant (koff) worked out at 0.00236 s⁻¹ and the kon is 210000 M⁻¹ s⁻¹.
Taken in the same sequence, the figures for B6 were 9.5 nM, 0.00331 s⁻¹ and 348000 M⁻¹ s⁻¹.
Taken in the same sequence, the figures for B7 were 18.1 nM, 0.00249 s⁻¹ and 138000 M⁻¹ s⁻¹.
Taken in the same sequence, the figures for B8 were 112 nM, 0.00292 s⁻¹ and 26000 M⁻¹ s⁻¹.
With B9, the Kd turned out to be 116 nM, the koff is 0.00238 s⁻¹ and the kon is 20600 M⁻¹ s⁻¹.
Turning to B10, the equilibrium dissociation constant (Kd) was found to be 12.5 nM, the koff turned out to be 0.00298 s⁻¹ and the kon is 238000 M⁻¹ s⁻¹.

The target of the next assay is T3, recombinant human PD-1-his (Sino biological, #10377-H08H) (human, UniProt Q15116 25-167).
T3 construct: Bought protein; also called Human PD-1-his protein; not shown: his tag
The description is as above.
Source text: as §1
On to B1, for which the dissociation constant (Kd) stood at 0.88 nM, the koff worked out at 0.000203 s⁻¹ and the on-rate (kon) amounted to 231000 M⁻¹ s⁻¹.
B2: the Kd was 2.3 nM, the dissociation rate constant (koff) was found to be 0.000359 s⁻¹ and the kon is 156000 M⁻¹ s⁻¹.
Taken in the same sequence, the figures for B3 were 0.342 nM, 5.88e-05 s⁻¹ and 172000 M⁻¹ s⁻¹.
In the case of B4, the Kd stood at 1.05 nM, the koff amounted to 0.000203 s⁻¹ and the kon was found to be 194000 M⁻¹ s⁻¹.
Taken in the same sequence, the figures for B5 were 2.06 nM, 0.000386 s⁻¹ and 188000 M⁻¹ s⁻¹.
As to B6, the Kd came out at 1.13 nM, the koff stood at 0.000189 s⁻¹ and the on-rate (kon) came to 168000 M⁻¹ s⁻¹.
Taken in the same sequence, the figures for B7 were 0.372 nM, 0.000131 s⁻¹ and 353000 M⁻¹ s⁻¹.
Taken in the same sequence, the figures for B8 were 2.83 nM, 0.000577 s⁻¹ and 204000 M⁻¹ s⁻¹.
For the molecule B9, the Kd is 1.77 nM, the koff was 0.000307 s⁻¹ and the kon was 173000 M⁻¹ s⁻¹.
Taken in the same sequence, the figures for B10 were 2.88 nM, 0.000442 s⁻¹ and 153000 M⁻¹ s⁻¹.
